Results published in the supplement of paper PMC10065799, “High-throughput profiling of sequence recognition by tyrosine kinases and SH2 domains using bacterial peptide display” (eLife, 2023).

How the values were obtained:
SHP2-C SH2 = assay: SH2 binding enrichment of the phosphorylated peptide, bacterial display (enrichment ratio); higher = better substrate or ligand; peptides without Tyr show the background
Grb2 SH2 = Grb2 SH2 (UniProt P62993); assay: as above
c-Src SH2 = assay: as above
FGFR3 = FGFR3 (UniProt P22607); assay: phosphorylation enrichment, bacterial display (enrichment ratio); higher = better substrate or ligand; peptides without Tyr show the background
Jak2 = Jak2 (UniProt O60674); assay: as above
Chain of Jak2 (O60674 whole entry, looked up): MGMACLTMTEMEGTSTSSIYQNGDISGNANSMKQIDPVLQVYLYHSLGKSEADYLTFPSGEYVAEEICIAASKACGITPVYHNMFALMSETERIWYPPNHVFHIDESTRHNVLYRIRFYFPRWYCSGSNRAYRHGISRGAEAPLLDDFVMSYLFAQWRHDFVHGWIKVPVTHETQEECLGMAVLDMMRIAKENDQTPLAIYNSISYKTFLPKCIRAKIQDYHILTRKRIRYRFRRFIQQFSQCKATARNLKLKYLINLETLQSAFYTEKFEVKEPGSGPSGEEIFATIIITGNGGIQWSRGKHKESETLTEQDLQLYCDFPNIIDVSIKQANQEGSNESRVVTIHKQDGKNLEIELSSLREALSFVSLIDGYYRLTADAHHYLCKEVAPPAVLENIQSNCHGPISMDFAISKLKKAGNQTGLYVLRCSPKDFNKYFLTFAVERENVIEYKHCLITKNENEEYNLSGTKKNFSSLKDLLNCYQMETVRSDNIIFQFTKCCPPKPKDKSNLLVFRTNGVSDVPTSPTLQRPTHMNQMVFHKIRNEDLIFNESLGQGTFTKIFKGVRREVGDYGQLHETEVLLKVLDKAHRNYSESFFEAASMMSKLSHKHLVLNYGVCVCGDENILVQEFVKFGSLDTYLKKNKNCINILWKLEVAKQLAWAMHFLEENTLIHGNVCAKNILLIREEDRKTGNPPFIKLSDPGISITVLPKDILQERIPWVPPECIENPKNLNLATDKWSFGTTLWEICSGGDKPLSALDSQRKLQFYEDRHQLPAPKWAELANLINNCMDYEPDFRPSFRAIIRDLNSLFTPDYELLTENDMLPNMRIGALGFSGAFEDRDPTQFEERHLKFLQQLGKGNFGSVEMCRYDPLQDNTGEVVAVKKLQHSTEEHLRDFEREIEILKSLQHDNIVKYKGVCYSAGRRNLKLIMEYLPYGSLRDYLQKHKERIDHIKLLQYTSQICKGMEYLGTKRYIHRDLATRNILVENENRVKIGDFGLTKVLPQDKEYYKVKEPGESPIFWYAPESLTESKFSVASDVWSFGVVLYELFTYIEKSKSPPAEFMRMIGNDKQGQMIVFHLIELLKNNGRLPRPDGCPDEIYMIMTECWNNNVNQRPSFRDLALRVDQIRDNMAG

MERTK = MERTK (UniProt Q12866); assay: as above
Chain of MERTK (Q12866 whole entry, looked up): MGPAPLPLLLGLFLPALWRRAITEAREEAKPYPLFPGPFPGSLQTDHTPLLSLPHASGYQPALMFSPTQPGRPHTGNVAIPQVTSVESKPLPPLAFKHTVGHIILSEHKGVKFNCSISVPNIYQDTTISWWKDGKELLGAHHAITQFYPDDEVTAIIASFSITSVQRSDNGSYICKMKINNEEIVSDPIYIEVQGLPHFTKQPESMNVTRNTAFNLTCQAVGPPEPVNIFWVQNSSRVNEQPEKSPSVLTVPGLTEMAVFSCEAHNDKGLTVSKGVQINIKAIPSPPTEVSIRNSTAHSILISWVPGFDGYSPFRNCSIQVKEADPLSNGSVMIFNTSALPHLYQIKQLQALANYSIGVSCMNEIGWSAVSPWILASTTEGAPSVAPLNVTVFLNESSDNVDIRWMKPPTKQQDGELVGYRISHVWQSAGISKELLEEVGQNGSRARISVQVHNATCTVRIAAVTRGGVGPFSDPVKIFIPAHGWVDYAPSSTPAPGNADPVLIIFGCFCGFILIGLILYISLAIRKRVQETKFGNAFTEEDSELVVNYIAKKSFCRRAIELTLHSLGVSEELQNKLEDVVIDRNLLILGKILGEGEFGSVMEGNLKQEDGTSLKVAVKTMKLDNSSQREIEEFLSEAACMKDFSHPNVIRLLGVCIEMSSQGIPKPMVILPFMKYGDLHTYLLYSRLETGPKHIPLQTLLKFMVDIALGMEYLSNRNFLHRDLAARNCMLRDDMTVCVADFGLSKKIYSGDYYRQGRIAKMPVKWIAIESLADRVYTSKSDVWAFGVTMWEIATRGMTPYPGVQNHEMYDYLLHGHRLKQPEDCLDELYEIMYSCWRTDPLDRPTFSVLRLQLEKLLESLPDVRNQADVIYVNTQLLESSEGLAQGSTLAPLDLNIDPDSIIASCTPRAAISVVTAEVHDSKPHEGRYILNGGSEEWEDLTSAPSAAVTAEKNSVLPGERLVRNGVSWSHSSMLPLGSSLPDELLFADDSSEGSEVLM

c-Abl (mouse) = assay: as above
Fer (mouse) = assay: as above
EPHB1 = EPHB1 (UniProt P54762); assay: as above
Chain of EPHB1 (P54762 whole entry, looked up): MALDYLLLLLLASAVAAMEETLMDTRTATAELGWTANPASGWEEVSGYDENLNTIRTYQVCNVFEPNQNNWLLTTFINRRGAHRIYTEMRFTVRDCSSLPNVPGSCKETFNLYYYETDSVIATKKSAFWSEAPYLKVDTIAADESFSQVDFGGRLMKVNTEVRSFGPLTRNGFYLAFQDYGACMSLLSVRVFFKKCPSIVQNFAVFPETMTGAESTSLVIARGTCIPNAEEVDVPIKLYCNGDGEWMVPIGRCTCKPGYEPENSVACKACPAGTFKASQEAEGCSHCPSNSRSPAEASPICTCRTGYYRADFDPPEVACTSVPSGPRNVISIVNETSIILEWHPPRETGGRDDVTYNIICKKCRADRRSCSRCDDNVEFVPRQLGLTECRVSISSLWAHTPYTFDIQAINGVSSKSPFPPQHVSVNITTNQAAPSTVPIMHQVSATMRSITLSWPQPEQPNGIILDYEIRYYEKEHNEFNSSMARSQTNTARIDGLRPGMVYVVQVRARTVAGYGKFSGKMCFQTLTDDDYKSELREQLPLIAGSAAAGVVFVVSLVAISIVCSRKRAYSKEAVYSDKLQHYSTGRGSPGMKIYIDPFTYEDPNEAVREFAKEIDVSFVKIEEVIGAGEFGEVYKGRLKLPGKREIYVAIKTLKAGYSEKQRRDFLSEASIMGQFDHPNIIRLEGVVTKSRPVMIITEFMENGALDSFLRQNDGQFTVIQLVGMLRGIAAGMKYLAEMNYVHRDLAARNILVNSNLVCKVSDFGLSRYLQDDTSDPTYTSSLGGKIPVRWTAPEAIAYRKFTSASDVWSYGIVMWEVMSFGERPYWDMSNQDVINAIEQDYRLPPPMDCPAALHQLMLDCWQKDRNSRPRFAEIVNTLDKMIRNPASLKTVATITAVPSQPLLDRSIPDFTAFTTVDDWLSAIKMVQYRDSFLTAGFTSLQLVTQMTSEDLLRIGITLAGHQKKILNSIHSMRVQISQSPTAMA

EPHB2 = EPHB2 (UniProt P29323); assay: as above
Fyn = Fyn (UniProt P06241); assay: as above
Fes = Fes (UniProt P07332); assay: as above
Chain of Fes (P07332 whole entry, looked up): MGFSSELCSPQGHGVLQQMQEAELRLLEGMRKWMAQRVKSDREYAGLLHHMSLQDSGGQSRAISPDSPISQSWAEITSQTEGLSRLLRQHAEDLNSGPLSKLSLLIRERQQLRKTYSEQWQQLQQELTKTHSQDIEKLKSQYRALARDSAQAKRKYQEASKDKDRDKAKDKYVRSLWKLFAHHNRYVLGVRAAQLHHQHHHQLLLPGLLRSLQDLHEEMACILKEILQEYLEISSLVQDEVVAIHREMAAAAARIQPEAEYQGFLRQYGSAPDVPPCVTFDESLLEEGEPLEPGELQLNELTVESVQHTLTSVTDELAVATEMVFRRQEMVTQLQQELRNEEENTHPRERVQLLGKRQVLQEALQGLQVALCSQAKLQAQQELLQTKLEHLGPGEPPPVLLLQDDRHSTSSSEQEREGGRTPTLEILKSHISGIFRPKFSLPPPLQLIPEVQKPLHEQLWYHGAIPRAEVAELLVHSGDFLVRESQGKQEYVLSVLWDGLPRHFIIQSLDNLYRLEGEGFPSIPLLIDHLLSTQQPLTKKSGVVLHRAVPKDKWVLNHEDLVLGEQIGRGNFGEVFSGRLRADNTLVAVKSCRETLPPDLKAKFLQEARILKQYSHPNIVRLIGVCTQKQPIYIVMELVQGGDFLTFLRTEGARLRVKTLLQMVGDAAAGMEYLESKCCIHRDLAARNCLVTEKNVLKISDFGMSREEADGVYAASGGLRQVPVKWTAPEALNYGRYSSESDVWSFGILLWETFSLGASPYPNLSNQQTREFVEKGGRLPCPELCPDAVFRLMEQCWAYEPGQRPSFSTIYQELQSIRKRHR

FGFR1 = FGFR1 (UniProt P11362); assay: as above
Chain of FGFR1 (P11362 whole entry, looked up): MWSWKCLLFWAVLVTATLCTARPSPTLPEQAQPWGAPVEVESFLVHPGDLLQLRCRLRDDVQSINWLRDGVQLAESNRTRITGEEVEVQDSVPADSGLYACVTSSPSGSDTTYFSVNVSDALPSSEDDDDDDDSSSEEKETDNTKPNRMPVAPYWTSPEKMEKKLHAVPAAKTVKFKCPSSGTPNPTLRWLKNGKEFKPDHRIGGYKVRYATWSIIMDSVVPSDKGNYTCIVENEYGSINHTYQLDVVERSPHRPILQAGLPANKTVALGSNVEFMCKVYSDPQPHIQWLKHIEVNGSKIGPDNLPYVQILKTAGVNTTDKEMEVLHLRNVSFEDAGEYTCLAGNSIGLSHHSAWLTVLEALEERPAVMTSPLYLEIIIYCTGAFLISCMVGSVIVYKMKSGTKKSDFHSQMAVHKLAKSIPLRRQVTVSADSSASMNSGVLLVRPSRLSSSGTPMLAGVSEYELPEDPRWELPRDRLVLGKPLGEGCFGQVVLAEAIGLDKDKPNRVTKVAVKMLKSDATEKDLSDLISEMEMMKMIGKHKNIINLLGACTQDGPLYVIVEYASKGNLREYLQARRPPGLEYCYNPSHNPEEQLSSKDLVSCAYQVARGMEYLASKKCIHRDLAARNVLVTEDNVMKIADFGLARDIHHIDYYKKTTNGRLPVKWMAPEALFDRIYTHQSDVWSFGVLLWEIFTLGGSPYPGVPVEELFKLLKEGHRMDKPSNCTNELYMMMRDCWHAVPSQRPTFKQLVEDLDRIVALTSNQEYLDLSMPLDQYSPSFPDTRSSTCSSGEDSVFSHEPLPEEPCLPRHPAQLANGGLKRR

AncSZ = assay: as above
c-Src = assay: as above
Hck = Hck (UniProt P08631); assay: as above
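Wherever SH2 binding enrichment of the phosphorylated peptide, bacterial display is given: peptide library displayed on the E. coli surface as eCPX fusions, selected cells deep-sequenced, score is each peptide's frequency after selection divided by its frequency in the input.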
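Wherever phosphorylation enrichment, bacterial display is given: 11-residue human phosphosite peptides and single-mutation variants displayed on the E. coli surface, counted by deep sequencing, each peptide's frequency after selection divided by its frequency in the unselected input library; frequency after pTyr selection over input frequency; kinase dosed for 20-30% of maximal phosphorylation in three min.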

Sequence | SH2 binding enrichment (SHP2-C SH2) | SH2 binding enrichment (Grb2 SH2) | SH2 binding enrichment (c-Src SH2) | phosphorylation enrichment (FGFR3) | phosphorylation enrichment (Jak2) | phosphorylation enrichment (MERTK) | phosphorylation enrichment (c-Abl (mouse)) | phosphorylation enrichment (Fer (mouse)) | phosphorylation enrichment (EPHB1) | phosphorylation enrichment (EPHB2) | phosphorylation enrichment (Fyn) | phosphorylation enrichment (Fes) | phosphorylation enrichment (FGFR1) | phosphorylation enrichment (AncSZ) | phosphorylation enrichment (c-Src) | phosphorylation enrichment (Hck)
RGVTHYILQTF [SLC39A4_Y359] | 1.2 | 1.33 | 1.05 | 0.905 | 1.24 | 0.553 | 0.944 | 0.582 | 0.394 | 0.703 | 0.499 | 1.27 | 0.664 | 1.09 | 0.48 | 0.711
IKKLIYVHLVI [JAGN1_Y42] | 0.775 | 1.1 | 0.631 | 0.842 | 0.982 | 0.569 | 0.852 | 0.592 | 0.669 | 0.59 | 0.496 | 1.32 | 0.604 | 1.02 | 0.424 | 0.671
RHPLDYLRQYP [NARS2_Y138_E137D] | 1.71 | 1.36 | 0.894 | 0.694 | 1.01 | 0.509 | 0.627 | 0.594 | 0.799 | 0.96 | 0.547 | 1.15 | 0.405 | 0.914 | 0.411 | 0.753
NQNIGYELGHR [KCNN3_Y268_K269E] | 0.683 | 0.892 | 0.672 | 0.403 | 0.348 | 0.276 | 0.425 | 0.289 | 0.449 | 0.318 | 0.528 | 0.486 | 0.343 | 0.496 | 0.305 | 0.37
AEEKEYHAEEG [EGFR_Y869_G873E] | 0.746 | 0.994 | 0.552 | 0.747 | 1.01 | 0.445 | 0.84 | 0.494 | 0.649 | 0.815 | 0.633 | 1.15 | 0.605 | 1.29 | 0.451 | 0.573
GGFTWYCDGKK [PROS1_Y266_C265W_YF] | 0.511 | 0.761 | 0.37 | 0.833 | 1.2 | 0.29 | 0.928 | 0.438 | 0.651 | 0.605 | 0.328 | 1.23 | 0.432 | 1.08 | 0.299 | 0.389
HPAGNYSLSSV [ARFGAP3_Y473_Q468H] | 0.79 | 0.804 | 0.603 | 0.458 | 0.672 | 0.625 | 0.867 | 0.619 | 0.706 | 0.58 | 0.409 | 0.666 | 0.562 | 0.49 | 0.425 | 0.553
DGMADCSDPSF [CDC5L_Y459_Y459C_YF] | 0.853 | 0.984 | 0.635 | 0.701 | 1.01 | 0.525 | 1 | 0.627 | 0.627 | 0.659 | 0.524 | 1.29 | 0.533 | 1.21 | 0.582 | 0.6
CPFNLYAEQFS [HGD_Y40_L44F_YF] | 0.519 | 0.942 | 0.66 | 0.847 | 1.34 | 1.6 | 1.16 | 0.923 | 2.19 | 1.29 | 0.834 | 1.54 | 0.747 | 1.45 | 1.49 | 1.08
ALMGLYHGQVL [HADHA_Y343] | 0.89 | 1.15 | 0.647 | 0.641 | 0.596 | 0.648 | 0.679 | 0.678 | 0.545 | 0.649 | 0.728 | 0.823 | 0.625 | 0.605 | 1.28 | 1.64
TAIFIYIRPKA [OR10C1_Y258_L255I] | 0.796 | 1.17 | 0.522 | 0.814 | 1.46 | 0.387 | 0.641 | 0.584 | 0.414 | 0.68 | 0.615 | 1.39 | 0.518 | 1.79 | 0.521 | 0.481
LGLDECLDKLK [FMNL2_Y352_Y352C] | 0.492 | 0.934 | 0.75 | 1.54 | 2.01 | 1.09 | 1.7 | 1.31 | 1.05 | 1.37 | 1.04 | 1.85 | 1.28 | 1.91 | 0.92 | 1.31
SRGHQYQELPR [KCNH2_Y1009_R1007H] | 0.807 | 1.04 | 5.11 | 0.464 | 0.721 | 0.576 | 0.589 | 0.413 | 0.466 | 0.602 | 0.487 | 0.672 | 0.609 | 0.527 | 0.35 | 1.06
TDIVAYSGRVQ [SPTBN2_Y477] | – | – | – | 1.05 | 1.48 | 0.885 | 1.13 | 0.264 | 0.369 | 2.04 | 1.05 | 0.196 | 0.214 | 0.857 | 1.05 | 0.407

Further lines, with some results ahead:

SH2 binding enrichment (SHP2-C SH2) | SH2 binding enrichment (Grb2 SH2) | SH2 binding enrichment (c-Src SH2) | Sequence | phosphorylation enrichment (FGFR3) | phosphorylation enrichment (Jak2) | phosphorylation enrichment (MERTK) | phosphorylation enrichment (c-Abl (mouse)) | phosphorylation enrichment (Fer (mouse)) | phosphorylation enrichment (EPHB1) | phosphorylation enrichment (EPHB2) | phosphorylation enrichment (Fyn) | phosphorylation enrichment (Fes) | phosphorylation enrichment (FGFR1) | phosphorylation enrichment (AncSZ) | phosphorylation enrichment (c-Src) | phosphorylation enrichment (Hck)
1.72 | 1.39 | 1.04 | PGGNIYISPLK [RB1_Y805] | 0.526 | 0.529 | 0.685 | 1.75 | 0.804 | 0.4 | 0.571 | 0.804 | 0.58 | 0.545 | 0.902 | 0.757 | 2.65
0.771 | 0.893 | 0.634 | AYRHGYFDEEM [PLEC_Y2971_R2969H] | 0.657 | 0.827 | 0.5 | 0.742 | 0.526 | 0.664 | 0.631 | 0.593 | 1.05 | 0.676 | 1.03 | 0.461 | 0.643
0.573 | 0.773 | 0.571 | ALIKAYDKAVA [SMN1_Y43] | 0.526 | 0.532 | 0.491 | 0.461 | 0.282 | 0.546 | 0.626 | 0.458 | 0.578 | 0.444 | 0.563 | 0.353 | 0.29
0.72 | 0.746 | 0.632 | CERLPYDASKW [FLT1_Y815] | 0.688 | 1.01 | 0.409 | 0.824 | 0.49 | 0.589 | 0.46 | 0.45 | 1.13 | 0.523 | 0.951 | 0.464 | 0.525
1.62 | 1.31 | 0.97 | AKLVQYFMEHH [PTPN11_Y80_E76K_YF] | 0.684 | 0.63 | 0.362 | 0.546 | 0.445 | 0.462 | 0.505 | 0.374 | 0.853 | 0.496 | 0.729 | 0.412 | 0.441
0.698 | 0.768 | 0.667 | LGGAMYFLEAD [PKHD1_Y452_E457D_YF] | 0.77 | 1.03 | 0.536 | 0.682 | 0.517 | 0.535 | 0.701 | 0.717 | 1.09 | 0.461 | 1.01 | 0.772 | 0.581
0.899 | 0.976 | 0.746 | PSRKDYETYQS [CTNND2_Y1154_P1159S] | 0.704 | 0.94 | 0.474 | 0.729 | 0.55 | 0.827 | 1.03 | 0.543 | 1.17 | 0.539 | 0.875 | 0.948 | 0.764
0.896 | 0.857 | 0.623 | DIDKIYIRTGI [PIK3CA_Y355_V356I] | 0.673 | 1.06 | 0.342 | 0.576 | 0.839 | 0.585 | 0.543 | 0.479 | 1.01 | 0.521 | 1.25 | 0.395 | 0.481
1.54 | 0.891 | 0.405 | AQESNYRLLRQ [SLC20A2_Y377_R382Q] | 0.445 | 0.754 | 0.488 | 0.634 | 0.479 | 0.785 | 0.534 | 0.391 | 0.737 | 0.411 | 0.616 | 0.397 | 0.478
1.04 | 0.862 | 0.509 | FETVKYFNNER [ABCB7_Y345_YF] | 0.606 | 0.702 | 0.288 | 0.567 | 0.465 | 0.564 | 0.445 | 0.39 | 0.898 | 0.417 | 0.828 | 0.345 | 0.381
0.762 | 0.83 | 1.1 | LGGAMYYLEAD [PKHD1_Y452_E457D] | 1.6 | 1.19 | 1.62 | 0.956 | 0.664 | 0.839 | 0.672 | 1.7 | 1.48 | 1.36 | 1.39 | 1.86 | 1.08
0.773 | 0.878 | 0.714 | RENGPYFTSFP [GDAP2_Y487_YF] | 0.825 | 0.991 | 0.568 | 1.19 | 0.591 | 0.417 | 0.645 | 0.479 | 1.17 | 0.764 | 1.03 | 0.971 | 0.49
0.621 | 1.11 | 0.616 | LGRKLYSIATP [ABHD12_Y345_A349T] | 0.635 | 1.3 | 1.29 | 1.07 | 0.698 | 0.576 | 0.471 | 0.413 | 1.18 | 0.612 | 0.773 | 0.698 | 0.672
0.435 | 0.542 | 1.15 | IRRIAYEFVEM [ADA_Y84_K80R] | 0.511 | 0.638 | 0.469 | 0.489 | 2.85 | 0.343 | 0.543 | 0.417 | 0.872 | 0.869 | 0.887 | 0.458 | 0.433
0.649 | 0.835 | 0.406 | EAMPDYKKQLR [SPATA18_Y229_S227P] | 0.444 | 0.623 | 0.322 | 0.469 | 0.474 | 0.378 | 0.394 | 0.309 | 0.819 | 0.399 | 0.608 | 0.378 | 0.296
